Source: patent publication US20210403538A1 (published 2021)

B1: rEBOV-542 (antibody, V domains shown)
VH: EVQLVESGGGLVQPGGSLRLSCAASGFTVSNNYMSWVRQAPGKGLEWVSLIYTSVTTYYADSVKGRFTISRDNSKNTLYLQMNSLRAEDTAVYYCARELGNWSYGVSYWGRGTLVTVSS
VL: SYELTQPPSVSVSPGQTARITCSGDALPKQYAYWYQQKPGQAPVLVIYKDSERPSGIPERFSGSSSGTTVTLTISGVQAEDGADYYCQSADGSGTYPVVFGGGTKLTVL
B2: EBOV-515 (antibody, V domains shown)
VH: QVQLQESGPGLVKPSQTLSLTCTVSGGSINSAGYYWTWIRQHPGKGLEWIGYIDYTGRTYYNPSLESRVIISIDTSKNHFSLRLTSVSAADTAVYYCARESSWVSELGRDNWGQGTLVTVSS
VL: EIVMTQSPATLPVSPGEGATLSCRASQSVFTNLAWYQQKPGQAPRLLIYDASTRATGIPARFSGSGSGTEFTLTISSLQSEDFAVYYCQQYNNWPRTYGQGTRVEVK
B3: rEBOV-520 LALA (antibody, V domains shown)
VH: QVQLQESGPGLGKPSETLSLSCTVSGASIRGYFWNWIRQPPGKGLEWIGYIHSTGSTNYNPSLKSRVTISVDTSKNQVSLNVNSVTAADTAVYFCARGAWNVATVYYYYGMDVWGQGTLVTVSS
VL: EIVLTQSPGTLSLSPGERATLSCRASQSVSSSYFAWYQQKPGQAPRLLISGTSTRAPGIPDRFSGSGSGTDFTLTISRLEPEDFAVYFCQQYGNSLYTFGQGTKLEIK
B4: rEBOV-548 (antibody, V domains shown)
VH: QVQVEESGGGVVQPGGSLRLSCAASGFMFSNYGMHWVRQAPGKGLEWMAFIRYDDSKKFYADSVKGRFTISRDNSKNTLYLQMNSLRAEDTALYYCAKELLQVYTSAWGEGHSYYYALDVWGLGTAVTVSS
VL: DIQMTQSPSSVSASVGDRVTITCRASQDISNWLAWYQQKPGKAPELLIYTASILQSGVSSRFSGSGSGTDFTLTISSLQPEDSATYYCQQGKSFPYTFGQGTKLEIK

Key:
EBOV GP [change] [1] = target: T1, EBOV GP [change] (Zaire ebolavirus (EBOV), strain Makona); assay: BLI
EBOV GP [change] [2] = target: T1, EBOV GP [change]; assay: ELISA
BDBV GP [change] = BDBV GP [change] (Bundibugyo ebolavirus (BDBV), strain …); assay: ELISA

Binder	Kd (EBOV GP [change] [1]) [nM]	EC50 (EBOV GP [change] [2]) [ng/mL]	EC50 (BDBV GP [change]) [ng/mL]
B1	0.26	11	8
B2	0.53	–	–
B3	2.12	18	45
B4	0.041	6	7
